Substitutions are numbered along the chain they refer to. Like-named read-outs stand apart in the source and are kept apart here.

As usually defined, the Kd is the free concentration of one partner at which half of the binding sites on the other are occupied at equilibrium, for simple one-to-one binding.

In test [1] the target is T1, cynomolgus CD47 protein (cynomolgus monkey, UniProt A0A2K5X523 19-139).
T1 construct: also called cyCD47; Cyno CD47
Kind of test: KD; method not stated.

The target of test [2] is T2, human CD47 protein (human, UniProt Q08722 19-139, limits assumed).
T2 construct: Soluble protein used for the KD measurements; construct not described; also called hCD47; CD47 (human)
Kind of test: KD; method not stated.

Test [3] concerns the target T1, cynomolgus CD47 protein. Kind of test: half-life of the complex; method not stated.
For test [4], the target named is T2, human CD47 protein. The test can be described thus: half-life of the complex; method not stated.
The target in test [5] is T3, cynomolgus PD-L1 protein (cynomolgus monkey, UniProt G7PSE7 19-238).
T3 construct: also called cyPD-L1; Cyno PD-L1
The test can be described thus: KD; method not stated.

Test [6] has as its target T4, human PD-L1 protein (human, UniProt Q9NZQ7 19-238).
T4 construct: Soluble protein used for the KD measurements; construct not described; also called hPD-L1; CD274
The test can be described thus: KD; method not stated.

The target in test [7] is T5, mouse PD-L1 protein (mouse, UniProt Q9EP73 19-238).
T5 construct: also called mPD-L1
The test can be described thus: column 'Cross with mouse?'; method not stated.

For test [8], the target named is T3, cynomolgus PD-L1 protein. Kind of test: half-life of the complex; method not stated.
The target of test [9] is T4, human PD-L1 protein. Kind of test: half-life of the complex; method not stated.
For test [10], the target named is T3, cynomolgus PD-L1 protein. Kind of test: half-life of the complex; method not stated. This is another data set of the same source.
For test [11], the target named is T4, human PD-L1 protein. The test can be described thus: half-life of the complex; method not stated. This is another data set of the same source.
Test [12] has as its target T3, cynomolgus PD-L1 protein. Kind of test: KD; method not stated. The source holds these as a separate data set.
Test [13] concerns the target T4, human PD-L1 protein. Kind of test: KD; method not stated. This is another data set of the same source.
Test [14] has as its target T3, cynomolgus PD-L1 protein. Kind of test: KD; method not stated. The source holds these as a separate data set.
Test [15] deals with T4, human PD-L1 protein. Kind of test: KD; method not stated. This is another data set of the same source.
For test [16], the target named is T5, mouse PD-L1 protein. Kind of test: KD; method not stated.
Test [17] has as its target T1, cynomolgus CD47 protein. Kind of test: KD; method not stated. The source holds these as a separate data set.
In test [18] the target is T2, human CD47 protein. The test can be described thus: KD; method not stated. This is another data set of the same source.

T4 sequence (Q9NZQ7 19-238 limits assumed): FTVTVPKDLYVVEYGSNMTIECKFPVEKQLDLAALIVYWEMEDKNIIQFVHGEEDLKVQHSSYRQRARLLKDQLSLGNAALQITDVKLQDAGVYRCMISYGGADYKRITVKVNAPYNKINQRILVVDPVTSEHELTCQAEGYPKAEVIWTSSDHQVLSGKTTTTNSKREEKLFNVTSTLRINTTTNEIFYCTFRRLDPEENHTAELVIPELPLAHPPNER
T5 sequence (Q9EP73 19-238 limits assumed): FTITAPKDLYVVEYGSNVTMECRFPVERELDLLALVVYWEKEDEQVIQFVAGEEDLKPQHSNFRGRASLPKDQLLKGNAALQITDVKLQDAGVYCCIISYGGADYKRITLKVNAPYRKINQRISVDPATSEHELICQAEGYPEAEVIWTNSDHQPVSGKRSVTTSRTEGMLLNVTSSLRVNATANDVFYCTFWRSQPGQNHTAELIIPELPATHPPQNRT
T2 sequence (Q08722 19-139 limits assumed): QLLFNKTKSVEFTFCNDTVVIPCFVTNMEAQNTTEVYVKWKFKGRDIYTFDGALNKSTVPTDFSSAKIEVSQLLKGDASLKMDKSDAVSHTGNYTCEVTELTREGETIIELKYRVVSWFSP
T3 sequence (G7PSE7 entry or part of it): as the sequence (Q9NZQ7 19-238 limits assumed) above, with A33T, A34S, S62N, R68Q, Q82R, F173L, T185A, T192I, H215L counted along it

B1: CD47_P14D04_parent (antibody, V domains shown)
VH: EVQLLESGGGLVQPGGSLRLSCAASGFSFSTFTMNWVRQAPGKGLEWVSTISGTGGNTYYADSVKGRFTISRDNSKNTLYLQMNSLRAEDTAVYYCARRRSTVGSNGHSYWFDYWGQGTLVTVSS
VL: not shown
For the molecule B1, the results for the Kd in the test with cynomolgus CD47 protein [1] and with human CD47 protein [2] were 9.7 nM and 6.39 nM, respectively. For the same molecule, the T1/2 with cynomolgus CD47 protein [3] came out at 2.52 min; with human CD47 protein [4] it was 3.6 min.

B2: PDL1_P04D09_parent (antibody, V domains shown)
VH: EVQLLESGGGLVQPGGSLRLSCAASGFTFSSYAMSWVRQAPGKGLEWVSAIGVRGGITYYADSVKGRFTISRDNSKNTLYLQMNSLRAEDTAVYYCARERSVGELVGIDWMDHWGQGTLVTVSS
VL: not shown
Turning to B2, the Kd with cynomolgus PD-L1 protein [5] was found to be 1.15 nM; with human PD-L1 protein [6], 0.56 nM; with mouse PD-L1 protein [7], 20.4 nM. Besides, the T1/2 in the test with cynomolgus PD-L1 protein [8] was determined as 20.1 min; with human PD-L1 protein [9] it was 43.6 min.

B3: PDL1_P04D09_113 (antibody, V domains shown)
VH: B2 VH with W110Q
VL: not shown
For the molecule B3, the T1/2 with cynomolgus PD-L1 protein [10] turned out to be 23.4 min; with human PD-L1 protein [11], 22.2 min. In addition, the Kd in the test with cynomolgus PD-L1 protein [12] and with human PD-L1 protein [13] was 1.7 nM throughout.

B4: PDL1_P06B05_parent (antibody, V domains shown)
VH: EVQLVESGGGLVKPGGSLRLSCAASGFTFSNAWMNWVRQAPGKGLEWVGRIKTKADGGTTDYAAPVKGRFTISRDDSKNTLYLQMNSLKTEDTAVYYCTTDPGSYWDSVYGGMDYWGQGTLVTVSS
VL: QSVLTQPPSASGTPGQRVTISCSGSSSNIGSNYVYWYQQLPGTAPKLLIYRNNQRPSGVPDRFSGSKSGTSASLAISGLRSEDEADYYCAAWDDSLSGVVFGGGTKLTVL
In the case of B4, the Kd in the test with cynomolgus PD-L1 protein [5] was 8.07 nM; with human PD-L1 protein [6], 4.42 nM; with mouse PD-L1 protein [7], 207 nM; with cynomolgus PD-L1 protein [14], 3.11 nM; with human PD-L1 protein [15] it was 2.36 nM. The T1/2 with cynomolgus PD-L1 protein [8] was 10.2 min; with human PD-L1 protein [9] it was 28.2 min.

B5: P06B05_D61S_Y62A (antibody, V domains shown)
VH: B4 VH with D61S, Y62A
VL: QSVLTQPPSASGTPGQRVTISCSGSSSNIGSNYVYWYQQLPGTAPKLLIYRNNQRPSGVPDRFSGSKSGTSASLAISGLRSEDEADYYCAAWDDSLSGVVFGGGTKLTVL
notes: Variant of P06B05
As to B5, the Kd in the test with cynomolgus PD-L1 protein [14] is below 1.19 nM; with human PD-L1 protein [15] it was 6.71 nM.

B6: P06B05_G112A (antibody, V domains shown)
VH: B4 VH with G112A
VL: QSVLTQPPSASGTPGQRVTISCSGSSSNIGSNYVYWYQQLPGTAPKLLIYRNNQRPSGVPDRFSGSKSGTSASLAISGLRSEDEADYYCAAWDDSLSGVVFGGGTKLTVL
notes: Variant of P06B05
B6: the Kd with mouse PD-L1 protein [16] was 131 nM; with cynomolgus PD-L1 protein [14] it was 3.72 nM; with human PD-L1 protein [15], 3.71 nM.

B7: P06B05_M113L (antibody, V domains shown)
VH: B4 VH with M113L
VL: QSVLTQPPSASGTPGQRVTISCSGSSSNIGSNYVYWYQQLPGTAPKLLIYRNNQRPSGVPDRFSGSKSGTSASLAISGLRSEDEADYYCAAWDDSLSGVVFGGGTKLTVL
notes: Variant of P06B05
As for B7, the Kd came out at 6.55 nM in the test with cynomolgus PD-L1 protein [14] and 6.82 nM in the test with human PD-L1 protein [15].

B8: P06B05_S104A (antibody, V domains shown)
VH: B4 VH with S104A
VL: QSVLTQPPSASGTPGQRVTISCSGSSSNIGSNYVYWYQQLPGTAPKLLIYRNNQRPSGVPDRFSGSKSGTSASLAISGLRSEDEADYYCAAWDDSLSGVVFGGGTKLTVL
notes: Variant of P06B05
As to B8, the results for the Kd in the test with cynomolgus PD-L1 protein [14] and with human PD-L1 protein [15] were 3.93 nM and 3.5 nM, respectively.

B9: P06B05_S104Y (antibody, V domains shown)
VH: B4 VH with S104Y
VL: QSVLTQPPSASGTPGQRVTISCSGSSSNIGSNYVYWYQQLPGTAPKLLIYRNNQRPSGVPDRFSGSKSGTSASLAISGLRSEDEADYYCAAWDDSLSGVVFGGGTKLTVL
notes: Variant of P06B05
As for B9, the dissociation constant (Kd) is 5.79 nM with cynomolgus PD-L1 protein [14] and 9.75 nM with human PD-L1 protein [15].

B10: P06B05_S104E (antibody, V domains shown)
VH: B4 VH with S104E
VL: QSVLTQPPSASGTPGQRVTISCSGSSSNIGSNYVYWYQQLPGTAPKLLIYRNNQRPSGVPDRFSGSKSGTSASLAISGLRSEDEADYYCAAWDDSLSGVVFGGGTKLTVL
notes: Variant of P06B05
Consider B10, for which the Kd with mouse PD-L1 protein [16] stood at 23.1 nM; in the test with cynomolgus PD-L1 protein [14], 0.45 nM; with human PD-L1 protein [15] it was 0.8 nM.

B11: P06B05_D56E_G57A (antibody, V domains shown)
VH: B4 VH with D56E, G57A
VL: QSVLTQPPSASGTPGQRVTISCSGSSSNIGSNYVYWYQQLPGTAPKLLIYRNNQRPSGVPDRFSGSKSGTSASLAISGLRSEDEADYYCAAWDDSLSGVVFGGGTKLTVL
notes: Variant of P06B05
B11: the Kd was above 1500 nM with mouse PD-L1 protein [16], 92.2 nM with cynomolgus PD-L1 protein [14] and 95.5 nM with human PD-L1 protein [15].

B12: P06B05_D107S (antibody, V domains shown)
VH: B4 VH with D107S
VL: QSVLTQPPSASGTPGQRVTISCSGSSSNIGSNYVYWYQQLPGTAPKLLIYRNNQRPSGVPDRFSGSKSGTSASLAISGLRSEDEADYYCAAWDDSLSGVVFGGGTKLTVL
notes: Variant of P06B05
Consider B12, for which the Kd in the test with cynomolgus PD-L1 protein [14] is 26.3 nM; with human PD-L1 protein [15], 23.9 nM.

B13: P06B05_D61Q_Y62S (antibody, V domains shown)
VH: B4 VH with D61Q, Y62S
VL: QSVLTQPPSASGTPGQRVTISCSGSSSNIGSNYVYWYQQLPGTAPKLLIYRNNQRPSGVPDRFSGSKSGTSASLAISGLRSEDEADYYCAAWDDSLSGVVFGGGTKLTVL
notes: Variant of P06B05
Take B13: the equilibrium dissociation constant (Kd) with cynomolgus PD-L1 protein [14] came to 5.54 nM; with human PD-L1 protein [15], 5.02 nM.

B14: P06B05_D61S_Y62S (antibody, V domains shown)
VH: B4 VH with D61S, Y62S
VL: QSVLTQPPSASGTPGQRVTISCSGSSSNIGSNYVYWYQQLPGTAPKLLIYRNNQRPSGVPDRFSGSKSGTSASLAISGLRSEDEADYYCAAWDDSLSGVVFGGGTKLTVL
notes: Variant of P06B05
B14: the figures for the Kd in the test with cynomolgus PD-L1 protein [14] and in the test with human PD-L1 protein [15] were 2.15 nM and 6.1 nM, respectively.

B15: P06B05_D107Y (antibody, V domains shown)
VH: B4 VH with D107Y
VL: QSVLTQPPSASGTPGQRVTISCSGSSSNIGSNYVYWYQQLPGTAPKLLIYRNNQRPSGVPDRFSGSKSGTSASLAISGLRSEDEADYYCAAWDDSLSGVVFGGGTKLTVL
notes: Variant of P06B05
As to B15, the Kd was determined as 3.23 nM in the test with cynomolgus PD-L1 protein [14] and 3.03 nM in the test with human PD-L1 protein [15].

B16: P06B05_G103I (antibody, V domains shown)
VH: B4 VH with G103I
VL: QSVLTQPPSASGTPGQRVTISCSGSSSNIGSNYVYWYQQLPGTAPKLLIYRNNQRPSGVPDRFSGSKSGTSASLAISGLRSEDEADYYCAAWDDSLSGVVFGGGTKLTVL
notes: Variant of P06B05
In the case of B16, the Kd with cynomolgus PD-L1 protein [14] was found to be 8.11 nM; with human PD-L1 protein [15] it was 8.06 nM.

B17: P06B05_Y105H (antibody, V domains shown)
VH: B4 VH with Y105H
VL: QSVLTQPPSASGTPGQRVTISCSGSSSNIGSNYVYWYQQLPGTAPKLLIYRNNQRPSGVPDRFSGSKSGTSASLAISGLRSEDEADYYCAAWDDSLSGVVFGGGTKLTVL
notes: Variant of P06B05
On to B17, for which the Kd with cynomolgus PD-L1 protein [14] is 6.58 nM; with human PD-L1 protein [15], 12.8 nM.

B18: P06B05_D61S_Y62Q (antibody, V domains shown)
VH: B4 VH with D61S, Y62Q
VL: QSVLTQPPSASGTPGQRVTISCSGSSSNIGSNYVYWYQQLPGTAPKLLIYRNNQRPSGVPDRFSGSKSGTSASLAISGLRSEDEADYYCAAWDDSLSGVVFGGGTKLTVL
notes: Variant of P06B05
Regarding B18, the values for the Kd with cynomolgus PD-L1 protein [14] and in the test with human PD-L1 protein [15] were 3.73 nM and 5.98 nM, respectively.

B19: P06B05_V109S (antibody, V domains shown)
VH: B4 VH with V109S
VL: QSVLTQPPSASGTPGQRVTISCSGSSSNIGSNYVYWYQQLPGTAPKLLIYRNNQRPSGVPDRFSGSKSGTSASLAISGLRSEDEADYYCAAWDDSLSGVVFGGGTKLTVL
notes: Variant of P06B05
As to B19, the Kd in the test with cynomolgus PD-L1 protein [14] is above 100 nM; with human PD-L1 protein [15], 76.5 nM.

B20: PDL1_P06B05_245 (antibody, V domains shown)
VH: B4 VH with S104E
VL: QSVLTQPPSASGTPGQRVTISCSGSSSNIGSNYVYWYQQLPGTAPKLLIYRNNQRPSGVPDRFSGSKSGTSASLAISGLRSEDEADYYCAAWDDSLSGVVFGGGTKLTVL
notes: Monospecific antibody; also called anti-PD-L1 antibody P06B05_245
Consider B20, for which the T1/2 with cynomolgus PD-L1 protein [10] was 23.7 min; with human PD-L1 protein [11], 23.4 min. Besides, the Kd with cynomolgus PD-L1 protein [12] and in the test with human PD-L1 protein [13] was 1.6 nM in each case.

B21: P06B05_D107L (antibody, V domains shown)
VH: B4 VH with D107L
VL: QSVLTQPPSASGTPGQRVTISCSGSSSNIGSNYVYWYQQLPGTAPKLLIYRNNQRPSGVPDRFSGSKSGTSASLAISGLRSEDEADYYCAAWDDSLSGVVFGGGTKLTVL
notes: Variant of P06B05
B21: the results for the Kd with cynomolgus PD-L1 protein [14] and with human PD-L1 protein [15] were 83 nM and 90.2 nM, respectively.

B22: P06B05_G112S (antibody, V domains shown)
VH: B4 VH with G112S
VL: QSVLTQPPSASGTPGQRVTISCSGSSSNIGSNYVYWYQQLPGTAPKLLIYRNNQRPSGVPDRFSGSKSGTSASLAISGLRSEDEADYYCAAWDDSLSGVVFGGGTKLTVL
notes: Variant of P06B05
Consider B22, for which the figures for the Kd in the test with mouse PD-L1 protein [16], in the test with cynomolgus PD-L1 protein [14] and in the test with human PD-L1 protein [15] were 77.7 nM, 1.74 nM and 1.69 nM, respectively.

B23: P06B05_S104I (antibody, V domains shown)
VH: B4 VH with S104I
VL: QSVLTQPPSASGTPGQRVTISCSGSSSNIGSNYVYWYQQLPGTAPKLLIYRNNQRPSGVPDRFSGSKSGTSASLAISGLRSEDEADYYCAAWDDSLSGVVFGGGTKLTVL
notes: Variant of P06B05
Take B23: the Kd in the test with cynomolgus PD-L1 protein [14] is 0.99 nM; with human PD-L1 protein [15], below 0.74 nM.

B24: P06B05_S104H (antibody, V domains shown)
VH: B4 VH with S104H
VL: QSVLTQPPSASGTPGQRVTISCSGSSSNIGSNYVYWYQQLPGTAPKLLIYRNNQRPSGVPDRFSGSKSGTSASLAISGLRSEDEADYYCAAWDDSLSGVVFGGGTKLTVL
notes: Variant of P06B05
On to B24, for which the Kd was 6.11 nM with cynomolgus PD-L1 protein [14] and 7.9 nM with human PD-L1 protein [15].

B25: PDL1_P06A09_parent (antibody, V domains shown)
VH: EVQLVESGGGLVKPGGSLRLSCAASGFTFSNAWMNWVRQAPGKGLEWVGRIKSESDGGTTDYAAPVKGRFTISRDDSKNTLYLQMNSLKTEDTAVYYCTTDYRIDDWGYPYPGMDYWGQGTLVTVSS
VL: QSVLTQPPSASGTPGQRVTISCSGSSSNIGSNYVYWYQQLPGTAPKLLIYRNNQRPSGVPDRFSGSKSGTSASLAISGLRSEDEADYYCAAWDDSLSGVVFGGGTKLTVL
Regarding B25, the Kd in the test with cynomolgus PD-L1 protein [5] turned out to be 5.75 nM; with human PD-L1 protein [6] it was 2.97 nM; in the test with mouse PD-L1 protein [7], 113 nM. Further, the results for the T1/2 with cynomolgus PD-L1 protein [8] and with human PD-L1 protein [9] were 2.79 min and 5.13 min, respectively.

B26: CD47_P01A08_parent (antibody, V domains shown)
VH: QVQLVQSGAEVKKPGSSVKVSCKASGYTFSNYAITWVRQAPGQGLEWMGGISPIFGTANYAQKFQGRVTITADESTSTAYMELSSLRSEDTAVYYCARDGGRSSDGGWRGAGMDYWGQGTLVTVSS
VL: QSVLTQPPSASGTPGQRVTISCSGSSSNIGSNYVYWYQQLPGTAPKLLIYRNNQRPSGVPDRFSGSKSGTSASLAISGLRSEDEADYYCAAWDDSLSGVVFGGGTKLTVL
With B26, the values for the Kd with cynomolgus CD47 protein [1] and in the test with human CD47 protein [2] were 2.08 nM and 1.72 nM, respectively. The figures for the T1/2 with cynomolgus CD47 protein [3] and with human CD47 protein [4] were 20.2 min and 21.3 min, respectively.

B27: CD47_P01A11_497 (antibody, V domains shown)
VH: QVQLVQSGAEVKKPGSSVKVSCKASGGTFTSYAISWVRQAPGQGLEWMGGISPIFGTANYAQKFQGRVTITADESTSTAYMELSSLRSEDTAVYYCARDAGRSSDVGWYVGALDVWGQGTLVTVSS
VL: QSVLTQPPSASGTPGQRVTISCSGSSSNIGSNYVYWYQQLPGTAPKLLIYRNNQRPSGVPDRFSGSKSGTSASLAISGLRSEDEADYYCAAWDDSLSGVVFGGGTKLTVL
notes: Monospecific antibody
Take B27: the Kd is 704 nM with cynomolgus CD47 protein [17] and 497 nM with human CD47 protein [18].

The values above are taken from patent US20210179716A1 (Pfizer, published 2021).
